The text below walks through data of the nanobody polyreactivity screen of Harvey et al. (2022).

The nature of this data set: yeast display, Sf9 membrane polyspecificity reagent, FACS + sequencing; frameworks hold sequencing errors. The procedure, abridged:
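A synthetic nanobody library was expressed on Saccharomyces cerevisiae BJ5465 by galactose induction for 36–48 hours. The library was stained for 1 hour at 4 °C with 10% biotinylated, detergent-solubilized Sf9 membrane reagent and enriched with streptavidin microbeads before FACS. Low and high (top ~1%) gates were set on anti-HA fluorescence for expression and streptavidin fluorescence for reagent binding, and each polyreactivity label reflects the gate of origin.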
Consider “QVQLVESGGGLFQAGGSLRLSFAASGIIFPYNLMGWYRQAPGKERELVAAITRGAASTYYADSVKGRFTISRDHEKNTVYLQMNSLKPEDTAVYFCNADGTWRTYNFWGQGTQVTVSS”, for which the “polyreactivity (PSR sort gate)” value is “high polyreactivity”.

As for “QVQLVESCGGLVQAGGSLRLSCAASGSISFYAMGWYRQAPGQERELVAAITTSGGRTYYADSVKGRFTISRDNAKNTVYLQMNSLKPEDTAVYYCAQQGWYYSNRDGYRWYDYWGQGTQVTVSS”, the “polyreactivity (PSR sort gate)” value was “high polyreactivity”. For “QVQLVESGGGLVQAGGSLRLSCAASGRIFRKYTMGWYRQAPGKERELVAAISARGGSTYYADSVKGRFTISRDNAKNTVYLQMNSLKPEDTAVYYCTTSPIGNITYRYDYWGQGTQVTVSS” the value was “high polyreactivity”; for “QVQLVESGGGLVQAGGSLRISCAASGRIFGINSMGWYRQAPAKERELVAAMSRGGTTNYADSVKGRFTISRDNAKNTVYLQMNSLKPEDTAVYYCNAVGFYAPNTFDYWGQGTQVTVSS”, “high polyreactivity”; for “QVQLVESGGGLVQAGGSLRLSCAASGSIFYENTMGWYRQAPGKEREFVAAISRSGGSTYYADSEKGRYTISRDNAKNTVYLQRNSLKPEDTAVYYCAAKSRRYHHEYYYWGQGTQVTVSS”, “high polyreactivity”. With “QVQHVESGGGLVQAGGSLRLSCAASGRTFVLYTMGWYRQAPGKERELVAAISGSGGRTYYADSVKGRFTISRDNAKNTVYLQMNSLKPEDTAVYYCAAYGQGLPLYGYWGQGTQVTVSS”, the “polyreactivity (PSR sort gate)” value is recorded as “high polyreactivity”.

“QVQLVESGGGLVQAGGSLRLSCAASGRTFYYYAMGWYRQPPGKERELVAAIRWSTGSTYYADSVKGRFTISRVNAQITVYLQMNSLKPEDTAVYYCAADTWYIQWGYYWGQGTQVTVSS”: the “polyreactivity (PSR sort gate)” value is given as “low polyreactivity”. For “QVQLVESGGGLVQAGGSLRLSCAASGRTFNKYAMGWYRQAPGKERELVAAITGSGGSTYYADSVKGRFTISRDNAKNTVYLEMNSLKPEDTAVYYCAAYAYGVWHSQDGGNYWGQGTQVTVSS” the value was “low polyreactivity”.

Regarding “QVQLVESGGGLVQAGGSLRLSCAASGFTFEIYAMGWYRQAPGKEREFVASISWSVGSTYYADSVKGRFTISRDNAKNTVYLQMNSLKPEDTAVYYCNADWRHKYYHSYLYDYWGQGTQVTVSS”, the “polyreactivity (PSR sort gate)” value is given as “low polyreactivity”.

Take “QVQLVESGGGLVQAGGSLRLSCAASAFILYFNAMGWYRQAPGKESDLVAAISRGDGYTYADSVKGRFTISRDNAKNTVYLLMNRLNPEDTEVYYCNAGLGVVVTLYVGSGYDSWGHGTQVTVSS”: the “polyreactivity (PSR sort gate)” value is listed as “low polyreactivity”.

With “QVQLEESGGGLVQAGGSLRLSCAASGRTFYSYAMGWYRQAPGKEREWVAAITSDGGTYYADSVKGRFTISRDNAKNTVYLQMNSLKPEDTAVYYCAAELYYWYYYWGQGTQVTVSS”, the “polyreactivity (PSR sort gate)” value was “low polyreactivity”. For the sequence “QVQLVESGGGLVQAGGSLRLSCAASGLTFYQYAMGWYRQAPGKERELVAGISSGGSTKYADSVKGRFTISRDNAKNTVYLQMNSLKPEDTAVYYCAARFCAFRKGYYYWGQGTQVTVSS”, the “polyreactivity (PSR sort gate)” value was “high polyreactivity”. For “QVQLVESGGGLVQAGGTLRLSCAASGSISIRNAMGWYRQAPGKERELVAAITYSGGSTYYADSVKGRFTISRDNAKNTVYLQMNSLKPEDTAVYYCAKDHYRFRYDYWGQGTQVTVSS” the value was “low polyreactivity”. For “QVQLVESGGGLVQAGGSLRLSCAASGRIFGVYAMGWYRQAPGKERELVAAITYRGASTYADSVKGRFTISRDNAKNTVYLQMNSLNPEDTAVYYCAAEPGSRSYGGDYWGQGTQVTVSS” the value was “high polyreactivity”; for “QVQLLESGGGLVQAGGSHRLSCASSGRTFSRYAMGWYRQAPGKERELVAAISYSGGSTYADSVKGRFTISRDNAKNTVYLQMIRLKPEDTAVYYCAAEKYVYWFSYQYGYWGQGTQVSVSS”, “high polyreactivity”.

With “QVQLVESGGGLVQAGGSLRLSCAASGSILFVYAMGWYRQAPGKERELVAGINSSGTSTYADSVKGRFTISRDNAKNTVYLQMNSLKPEDTAVYYCAARWFYYRWAYDYWGQGTQVTVSS”, the “polyreactivity (PSR sort gate)” value is given as “low polyreactivity”. On to “QVQLVESGGGLVQAGGSLRLSCAASGGTFDNYAMGWYRQAHGKERELVAAISWSGDNTYYADSVKGRFTISRDNAKNTVYLQMNSLKPEVTAVYYCAAVYFWYSYDEGYTAYDYWGQGTQVTVSS”, for which the “polyreactivity (PSR sort gate)” value is “low polyreactivity”.

Take “QVQLVESGGGLVQAGGSLRLSCAASGGIFGHYGMGWYRQAPGQERELVASISWNGGSTYYADSVKGRFTSSRDNAKNTVYLQMNSLKPEDTAVYYCAARAIWLRYVGYTYYYWGQGTQVTVSS”: the “polyreactivity (PSR sort gate)” value is “high polyreactivity”.

As to “QVQLVESGGGLVQAGGSLRLSCAASGSTFRRYAMGWYRQAPGKERELVATISSGGRTNYADSVKGRFTISRDNAKNTVYLQMNSLKPEDTAVYYCAARPYYYERSAGYYWGQGTQVTVSS”, the “polyreactivity (PSR sort gate)” value is “high polyreactivity”. With “KVQLVEKGGGLVQAGGSLRLSSAASGLNFTIYSMGWYRQEPGKERELVATISQGGGSTYADSVKGRFTISRDNAKNTVYLQMNSLKPEDTAVYYCNAKVVWYYLYDYWGQGTQVTVSS”, the “polyreactivity (PSR sort gate)” value is recorded as “low polyreactivity”. For “QVQLVESGGGLVQAGGSLRLSCAASGSISFINAIGWYRQATGKERELVAAISGSGGSTYYADSVKGRFTISRDNAKNTVFLQMNSLKPEDTAVYYCAVPLPSRIYGYWGQGTQVTVSS” the value was “low polyreactivity”; for “QVQLVESGGGLVQAGGSLSISCAASGLTFSYYAMGWYRQAPGKERELGAAIAGRTGRPYYADSVKGRFTISRDNAKNTVYLQMNSLKPEDTAVFYSAAGYTFSRYDDDYWGQGTQVTVSS”, “low polyreactivity”; for “QDQLVESGGGLVQAGGSLRLSCAASGRTFTRYTMGRYRPAPVKERELVAAISSGGSTTYADSVKGRFTISRDNAKNTVYLQMNSLKPEDTAVYYCAAGLVYRGYRRDYWGQGTQVTVSS”, “low polyreactivity”. As to “QVQLVDSGAGLVQAGGSLRIICAASVRTFPRNAMGWYRQAPGKEMEMVAAITGSGGSTYYADSVKGRFTISRDNAKNTVYLQMNSLKPEDTAVYYCAARGPSRRRDGSDYWGQGTQVTVSS”, the “polyreactivity (PSR sort gate)” value is given as “high polyreactivity”. For “QVQLLESGGGLVQAGGSLRLSCAASGRIFNYNAMGWYRQAPGKERELVAAISWDGGSTYYADSVKGRFTISRDNAKNTVYLQMNSLKPEDTAVYYCAARGGSRRFQSQAYSLPRYDYWGQGTQVTVSS”, the “polyreactivity (PSR sort gate)” value is listed as “high polyreactivity”.

As to “QVQLVESGGGLVQAGGSLRLSCAASRGIFWVYAMGWYRQATGKEREMVAAISNSDTSTSYADSVKGRFTISRDNAKNTVYLQMNSLKPEDTALYYCNADSPSLSGDYWGQGTQVTVSS”, the “polyreactivity (PSR sort gate)” value is reported as “low polyreactivity”. As for “QVQLVESGGGLVQAGGSLRLSCAASGTIFSVNAMGWYRQRLGKKGSWWPLFLTLLPSTYYADSVKARFTISRDNAKNTVYLQMNSLKPEDTAVYYCNAVYSVDFPTPTSDGDPDGFDYWGQGTQVTVSS”, the “polyreactivity (PSR sort gate)” value is given as “low polyreactivity”.

“QVQLVESGGGLVQAGGSLRLSCAASGSIFYKNAMGWYRQAPGKERELVAAISYSGGSTYYADSVKGRFTISRDNAKNTVYLQMNSLKPEDTAVYYCAAKGGAWGQGTQVTVSS”: the “polyreactivity (PSR sort gate)” value was “high polyreactivity”. For “QGQLVESGGGLVQAGCSLRLSCAASGSNFYYKAMGWYRQAPRKERELVARISRSGGSTYADSVKGRFTISRDNAKNTVYLQMNSLKPEDTAVYYCNADAYGTPEFTPYSVRYDYWGQGTQVTVSS”, the “polyreactivity (PSR sort gate)” value was “low polyreactivity”.

Regarding “QVQLVESGGGIVQAGGSLRLSCAASGSTFRYYARGWSRQAPGKERELVATITCNAAGTYYADSVKGRFTISRDNAKNTVYLQMNSLKPEDTAVYYCAAAPWEWYHYGYYYWGQGTQVTVSS”, the “polyreactivity (PSR sort gate)” value was “low polyreactivity”. For “QVQLVESGGGLVQAGGSLRLICDASGRTFPPYAMGWYRQAPGKERELVAAISRRAGTTYYADSVKGRFTISRDNAKNTDYLQMNSLKPEDTAVYYCAADTPVWSGYWYDYWGQGTQVTVSS” the value was “low polyreactivity”. Next, “QVQLVESGGGLVQAGGSLRLSCAASGRISVYNMGWYRQAPGKERELVAAISNGGSTNYADSVKGRFTISRDNAKNTVYLQMNSLKPEDTAVYYCNRRVPYSFYSRGYYYWGQGTQVTVSS”: “high polyreactivity”; “QVQLVESGGGLVQAGGSLRLSCAASGRIWGYAMGLYRQAPGKARELVATITYNSGRTYYADSVKGRFTISRDNAKNTVYLQMNSLKPEDTAVYYCNKDFDGRFDYWGQGTQVNVSS”: “high polyreactivity”. In the case of “QVQLVESGGGLVQAGGSLRLSCAASGSIFGNYVMGWYRQAPGKERELVAAIRWTGGSTYYADSVKGRFTISRDNAKNTVYLQMNSLKAEDTAVYYSIADSSDDYDYWGQGTQVTVSS”, the “polyreactivity (PSR sort gate)” value is given as “low polyreactivity”. For “QVQLVESGGVLVQAVASLRVSCAASGRILDYNTMGWYRPAPGKERELVAAISFSGGRTYYADSVKGRFTISRDNAKNTFYLQMNSLKPEDTAVYYCAATVGAASRYYYWGQGSQVTVSS” the value was “high polyreactivity”; for “QVQLVESGGGLVQAGGSLRLTCAASGFIFYNNAMGWYRQAPGKERELVASIRWSGASTYYADSVKGRFTISRDNAKNTVYLQMNSLKPEDTAVYYCAARQSRLNSYFSHRFWRYDYWGQGTQVTVSS”, “high polyreactivity”. Next, “QVQLVESGRGLVQAGGSLRLSCAASGSILRNYAMGWYRQAPGKERELVAAISKSGGTTYYADSVKGRFTISRDNAKNTVYLQMNSLKPEDTAVYYCAARPGYLYDYWGQGTQVTVSS”: “high polyreactivity”.

“QVQLVESGGGLVQAGGSLRLSCAASGFTFYAYAMGWYRQAPGKERELVAVISWSGGSTYYADSVKGRFTISRDNAKNTVYLQMNSLKPEDTAVYYCAADSLESYPDYEYDYWGQGTQVTVSS”: the “polyreactivity (PSR sort gate)” value was “low polyreactivity”.

Regarding “QVQLVESGAGLVQAGGSLRLSCDASGLIFAGYAMGWYRQAPGTERELVAAITWRGGRTYADSVKGRFTISRDNAKNTVYLQINSLKPEDTAVYYCNKDPWYVFHPRGQFLFDYWGQGTQVTVSS”, the “polyreactivity (PSR sort gate)” value was “low polyreactivity”.

As for “QVQLVESGGGLDQAGGRLRLSCAASGSTFSYYAKSWYIQAPGKERELVARITWRGGSTNYADSVKGRFTISRDNAKNTVYLQMNSLKPEDTAVYYCATKLTSRVPFDYWGQGTQVTVSS”, the “polyreactivity (PSR sort gate)” value is reported as “high polyreactivity”. Next, “QVQLVESGGGLVQAGGSLRLSCEASGFTFGPYAMGWYRQAPGKEREWVAAIDDSGGNTYYADSVKGRFTISRDNAKNTVYLQRNSLKPEDTAVSYGNAFGPDYYHVYPAEDYWGQGTQVTVSS”: “low polyreactivity”.
